# Test results: publication PMC9091064
# Assays:
# [1] = target: SARS-CoV-2 3CLpro E14A (SARS-CoV-2); experiment: SEC
# [2] = target: SARS-CoV-2 3CLpro E14D (SARS-CoV-2); experiment: SEC
# [3] = target: SARS-CoV-2 3CLpro E14Q (SARS-CoV-2); experiment: SEC
# [4] = target: SARS-CoV-2 3CLpro E14S (SARS-CoV-2); experiment: SEC
# [5] = target: SARS-CoV-2 3CLpro E290A (SARS-CoV-2); experiment: SEC
# [6] = target: SARS-CoV-2 3CLpro E290D (SARS-CoV-2); experiment: SEC
# [7] = target: SARS-CoV-2 3CLpro E290Q (SARS-CoV-2); experiment: SEC
# [8] = target: SARS-CoV-2 3CLpro E290Y (SARS-CoV-2); experiment: SEC
# [9] = target: SARS-CoV-2 3CLpro K12A (SARS-CoV-2); experiment: SEC
# [10] = target: SARS-CoV-2 3CLpro K12A (SARS-CoV-2)
# [11] = target: SARS-CoV-2 3CLpro Q299A (SARS-CoV-2); experiment: SEC
# [12] = target: SARS-CoV-2 3CLpro Q299E (SARS-CoV-2); experiment: SEC
# [13] = target: SARS-CoV-2 3CLpro Q299N (SARS-CoV-2); experiment: SEC
# [14] = target: SARS-CoV-2 3CLpro R4A (SARS-CoV-2); experiment: SEC
# [15] = target: SARS-CoV-2 3CLpro R4Q (SARS-CoV-2); experiment: SEC
# [16] = target: SARS-CoV-2 3CLpro S1A (SARS-CoV-2); experiment: SEC
# [17] = target: SARS-CoV-2 3CLpro S10A (SARS-CoV-2); experiment: SEC
# [18] = target: SARS-CoV-2 3CLpro S10C (SARS-CoV-2); experiment: SEC
# [19] = target: SARS-CoV-2 3CLpro S10T (SARS-CoV-2); experiment: SEC
# [20] = target: SARS-CoV-2 3CLpro S139A (SARS-CoV-2); experiment: SEC
substance,measurement,setting,value
SARS-CoV-2 3CLpro E14A (enzyme),stoichiometry N,[1],2
SARS-CoV-2 3CLpro E14D (enzyme),stoichiometry N,[2],2
SARS-CoV-2 3CLpro E14Q (enzyme),stoichiometry N,[3],2
SARS-CoV-2 3CLpro E14S (enzyme),stoichiometry N,[4],2
SARS-CoV-2 3CLpro E290A (enzyme),stoichiometry N,[5],2
SARS-CoV-2 3CLpro E290D (enzyme),stoichiometry N,[6],2
SARS-CoV-2 3CLpro E290Q (enzyme),stoichiometry N,[7],2
SARS-CoV-2 3CLpro E290Y (enzyme),stoichiometry N,[8],2
SARS-CoV-2 3CLpro K12A (enzyme),share of the monomer form,[9],60%
same,stoichiometry N,[9],2
same,"relative proteolytic activity on the FRET peptide substrate, percent of WT",[10],60%
SARS-CoV-2 3CLpro Q299A (enzyme),stoichiometry N,[11],2
SARS-CoV-2 3CLpro Q299E (enzyme),stoichiometry N,[12],2
SARS-CoV-2 3CLpro Q299N (enzyme),stoichiometry N,[13],2
SARS-CoV-2 3CLpro R4A (enzyme),stoichiometry N,[14],2
SARS-CoV-2 3CLpro R4Q (enzyme),stoichiometry N,[15],2
SARS-CoV-2 3CLpro S1A (enzyme),stoichiometry N,[16],2
SARS-CoV-2 3CLpro S10A (enzyme),stoichiometry N,[17],2
SARS-CoV-2 3CLpro S10C (enzyme),stoichiometry N,[18],2
SARS-CoV-2 3CLpro S10T (enzyme),stoichiometry N,[19],2
SARS-CoV-2 3CLpro S139A (enzyme),stoichiometry N,[20],2
